Test results reported in patent US20210355205A1 (published 2021).
Each block holds one binder with its values, some of them ahead of it.

Key:
recombinant human IL-5 [1] = target: recombinant human IL-5 (human, UniProt P05113 20-134); assay: Biacore, Ab on Protein A chip
recombinant human IL-5 [2] = target: recombinant human IL-5 (human, UniProt P05113 20-134); assay: Biacore
Cynomolgus IL-5 = Cynomolgus IL-5 (cynomolgus monkey); assay: cell-based or functional assay

proportional kd vs parent 3A5.040 (recombinant human IL-5 [1]): 1 ratio
B1: 3A5.211 (antibody, human IgG4 S228P, lambda, name in Kabat numbering, V domains shown)
VH: QVQLQESGPGLVKPSQTLSLTCTVSGGSISNGGYYWSWIRQHPGKGLEWIGYIYYSGSTYYNPSLKSRVTISVDTSKNQFSLKLSSVTAADTAVYYCASLGNWFDYWGQGTLVTVSS
VL: SYVLTQPPSVSVAPGQTARITCGGNNIGSKNVYWYQQKPGQAPVLVVHDDSDRPSGIPERFSGSNSGNTATLTISRVEVGDEADYSCQAWDSSSDHVVFGGGTKLTVLG

proportional kd vs parent 3A5.040 (recombinant human IL-5 [2]): 0.8
B2: 3A5.508 (antibody, human IgG4 S228P, lambda, name in Kabat numbering, V domains shown)
VH: QVQLQESGPGLVKPSQTLSLTCTVSGGSISNGGYYWSWIRQHPGKGLEWIGYIYYSGSTYYNPSLKSRVTISVDTSKNQFSLKLSSVTAADTAVYYCASLANWFDYWGQGTLVTVSS
VL: SYVLTQPPSVSVAPGQTARITCGGNNIGSKNVYWYQQKPGQAPVLVVHDDSDRPSGIPERFSGSNSGNTATLTISRVEVGDEADYSCQVWDSSSDHVVFGGGTKLTVLG

Mean (pM): mean IC50, TF-1.6G4 cell line proliferation assay (Cynomolgus IL-5): 43.8 pM
B3: 3A5.046 (antibody, human IgG4 S228P, lambda)
heavy: QVQLQESGPGLVKPSQTLSLTCTVSGGSISNGGYYWSWIRQHPGKGLEWIGYIYYSGSTYYNPSLKSRVTISVDTSKNQFSLKLSSVTAADTAVYYCASLGNWFDYWGQGTLVTVSSASTKGPSVFPLAPCSRSTSESTAALGCLVKDYFPEPVTVSWNSGALTSGVHTFPAVLQSSGLYSLSSVVTVPSSSLGTKTYTCNVDHKPSNTKVDKRVESKYGPPCPPCPAPEFLGGPSVFLFPPKPKDTLYITREPEVTCVVVDVSQEDPEVQFNWYVDGVEVHNAKTKPREEQFNSTYRVVSVLTVLHQDWLNGKEYKCKVSNKGLPSSIEKTISKAKGQPREPQVYTLPPSQEEMTKNQVSLTCLVKGFYPSDIAVEWESNGQPENNYKTTPPVLDSDGSFFLYSRLTVDKSRWQEGNVFSCSVMHEALHNHYTQKSLSLSLG
light: SYVLTQPPSVSVAPGQTARITCGGNNIGSKNVYWYQQKPGQAPVLVVHDDSDRPSGIPERFSGSNSGNTATLTISRVEVGDEADYSCQVWDSSSDHVVFGGGTKLTVLGQPKAAPSVTLFPPSSEELQANKATLVCLISDFYPGAVTVAWKADSSPVKAGVETTTPSKQSNNKYAASSYLSLTPEQWKSHRSYSCQVTHEGSTVEKTVAPTECS
